Test results from patent US20190248902A1 (published 2019).

T1: Rat ASGR-1 (rat, UniProt P02706 1-284)
T1 construct: Expressed on HEK 293 cells or as membrane prep on beads; cDNA GenBank NM_012503
T1 sequence: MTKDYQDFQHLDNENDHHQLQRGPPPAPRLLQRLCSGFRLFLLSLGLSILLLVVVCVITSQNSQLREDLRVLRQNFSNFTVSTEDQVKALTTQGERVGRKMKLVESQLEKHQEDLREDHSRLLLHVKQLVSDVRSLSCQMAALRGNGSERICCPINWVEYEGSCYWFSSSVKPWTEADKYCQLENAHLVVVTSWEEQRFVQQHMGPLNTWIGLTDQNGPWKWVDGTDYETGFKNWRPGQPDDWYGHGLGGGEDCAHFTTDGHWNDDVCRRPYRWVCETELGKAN

T2: Dog ASGR-1 (dog)
T2 construct: Expressed on HEK 293 cells or as membrane prep on beads; cDNA GenBank XM_546579
T2 chain: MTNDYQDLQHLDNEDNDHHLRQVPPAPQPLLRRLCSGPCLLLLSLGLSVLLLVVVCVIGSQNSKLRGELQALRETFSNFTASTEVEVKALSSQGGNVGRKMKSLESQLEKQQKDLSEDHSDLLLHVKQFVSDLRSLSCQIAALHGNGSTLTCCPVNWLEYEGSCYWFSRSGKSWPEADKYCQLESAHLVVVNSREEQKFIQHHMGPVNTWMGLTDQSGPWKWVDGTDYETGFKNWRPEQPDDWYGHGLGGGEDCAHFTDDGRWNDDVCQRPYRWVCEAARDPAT


Key:
Rat ASGR-1 [1] = target: T1, Rat ASGR-1; assay: FACS on transfected HEK 293 cells or membrane preps on beads; binding = signal at least 2x irrelevant IgG
Method in brief: (§1)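 Antibodies at normalized concentrations bound 1 h at 4° C to HEK 293 cells expressing each antigen, then Alexa Fluor 647 anti-Fc plus 7-AAD 15 min at 4° C, flow cytometry; empty-vector cells as negative. Alternatively, species ASGR-1 membrane preps on streptavidin beads, antibody 1 h RT, Alexa Fluor 488 anti-Fc; FACS buffer with 1 mM CaCl2 throughout.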

Dog ASGR-1 = target: T2, Dog ASGR-1; assay: FACS on transfected HEK 293 cells or membrane preps on beads; Y = signal at least 2x irrelevant IgG
Method in brief: as §1

Rat ASGR-1 [2] = target: T1, Rat ASGR-1; assay: as above
Method in brief: as §1

Row | Binder | binding result (Rat ASGR-1 [1]) | binding result (Dog ASGR-1) | binding result (Rat ASGR-1 [2])
1 | 202A3 (antibody, V domains shown, Tested as hybridoma supernatant at normalized concentration) VH: QVQLEQSGAEVKKPGASVKVSCKASGYTFTSYDINWVRQATGQGLEWLGWMNPKRGNTGYAQKFQGRVTMTRNTSISTAHMELSSLRSEDTAVYYCARGRYSREDYYYYYDMDVWGQGTTVTVSS VL: DIQMSQSPSSLSASVGDRVTITCRASQGIRNDLGWYQQKPGKAPKRLICAASRLQSGVPSRFSGSGSGTEFTLTISSLQPEDFAIYYCLQHHDYPFTFGPGTKVDIK | no binding | binds | 
2 | 25A4 (antibody, V domains shown, Tested as hybridoma supernatant at normalized concentration) VH: QVLLVQSGAEVKRPGASVKVSCKASGYTFTNYDINWVRQATGQGLEWMGWMYPNSGNTGYAQKFQGRVTMTRNTSISTAYMELSSLRSEDTAVYYCASSSGWYYFDYWGQGTLVTVSS VL: DIVMTQFPDSLAVSLGERATIKCKSSQSVLYSSHNNNYLAWYQQKPGQPPKLLLYWASTRESGVPDRFSGSGSGTEFTLTISSLEAEDVAVYYCQQYYSTPPTFGQGTKVEIK |  |  | binds
3 | 26C4 (antibody, V domains shown, Tested as hybridoma supernatant at normalized concentration) VH: QVQLVQSGAEVKKPGASVKVSCKASGYTFTNYDINWVRQASGQGLEWMGWMNPNSGNTGYAQRFQGRVTMTRNTSINTAYMELSSLRSEDTAVYYCASSSGWYYFDYWGQGTLVTVSS VL: not shown |  |  | binds
4 | 75G3 (antibody, V domains shown, Tested as hybridoma supernatant at normalized concentration) VH: QVQLQQWGAGLLKPSETLSLTCAVYGGSLSGSYWSWIRQPPGKGLEWIGEINLSGSTNYNPSLKSRVTISVDTSKSQFSLTLRSVTAADTAVYYCARDYGGLDYWGQGTLVTVSS VL: EIVLTQSPGTLSLSPGERATLSCRARQNVDSSYLAWYQQKPGQAPRLLIYGASSRATGIPDRFSGSGSGTDFTLTISRLEPEDFAVFYCQQYERSPWTFGQGTKVEIK | no binding | binds | 
5 | 56E5 (antibody, V domains shown, Tested as hybridoma supernatant at normalized concentration) VH: QVQLVQSGAEVKKPGASVKVSCQASGYTFTGYHMHWVRQAPGQGLEWMGWINPNNNATNYAQKFQGRVTMTRDTSISTAYMELRRLRSDDTAVYHCARDGTSSFDYWGQGTLVTVSS VL: DIQMTQSPSSVSASVGDRVTITCRASQGIRKWLAWYQQKPGKAPKLLIYAASSLQSGVPSRFSGSGSGTDFTLTISSLQPEDFATYYCQQANSFPFTFGPGTKVDIK | no binding |  | 
6 | 7E11 (antibody, V domains shown, Tested as hybridoma supernatant at normalized concentration) VH: QVQLVESGGGVVQPGRSLRLSCAASGFTFSSFGMHWVRQAPGKGLEWVAIIWHDGSNKYYADSVKGRFTISRDNSNNTLYLQMSSLRAEDTAVYYCARDLSMGGMDVWGQGTTVTVSS VL: DIQMTQSPSSLSASVGDRVTIACRASQNIISYLNWYQQKPGKAPKFLIYTASSLQSGVPSRFSGSGSGTDFTLTISSLQPEDFAIYYCQQTYSTPLTFGGGTKVEIK | no binding |  | 
7 | 190F8 (antibody, V domains shown, Tested as hybridoma supernatant at normalized concentration) VH: QVQLVESGGGVVQPGRSLRLSCAASGFTFSTYGMHWVRQAPGKGLEWVAVIWYDGSNKNYADSVKGRFTISRDNSKNTLYLQMNSLRAEDTAVYYCARDQGVGYDGLDVWGQGTTVTVSS VL: DIQMTQSPSSLSASVGDRVTITCRTSQGIGNYLAWFQQKPGKAPKSLLYKASSLQSGVPSKFSGSGSGTDFTLTISSLQPEDFATYYCQQYMTYPLTFGGGTKVEIK | no binding | binds | 
8 | 198D2 (antibody, V domains shown, Tested as hybridoma supernatant at normalized concentration) VH: QVQLVESGGGVVQPGRSLRLSCAASGFTFRSYGMHWVRQAPGKGLEWVAVIIYDGSYKYYADSVKGRFTISRDNSKNTLYLQMNSLRAEDTAVYYCARTYSGGMDVWGQGTTVTVSS VL: QSVLTQPPSVSAAPGQKVTISCSGSSSNIGSNYVSWYQQLPGTAPKVLIYDNNKRPSGIPDRFSGSKSGTSATLGITGLQTGDEADYYCGTWDSRLNVGVFGGGTKLTVL |  |  | binds

Second part, the binder after the results:

Row | binding result (Rat ASGR-1 [1]) | binding result (Dog ASGR-1) | binding result (Rat ASGR-1 [2]) | Binder
9 | no binding | binds |  | 176H4 (antibody, V domains shown, Tested as hybridoma supernatant at normalized concentration) VH: QVQLVESGGGVVQPGRSLRLSCAASGFTFSSYGMHWVRQAPGKGLEWVAIIWYDGSYKYYADSVKGRFTISRDNSKNTLYLQMSSLRAEDTAVYYCARDAHDFWSGYFAYWGQGALVTVSS VL: DIVMTQTPLSLSVTPGQPASISCKSSQSLLHGDGKTYLYWYLQKPGQPPQLLIYEVSNRFSGVPDRFSGSGSGTDFTLKISRVEAEDVGIYYCMQSIQIPWTFGQGTRVEIK
10 | no binding | binds |  | 194C1 (antibody, V domains shown, Tested as hybridoma supernatant at normalized concentration) VH: QVQLVESGGGVVQPGRSLRLSCAASGFTFSSYGMHWVRQAPGKGLEWVAVIWYDGSNEHYADSVKGRFTISRDNSKNTLYLQMNSLRAEDTAVYYCARNRGVGYYGLDVWGQGTTVTVSS VL: DIQMTQSPSSLSASVGDRVTITCRASQGISNYLAWFQQKPGKAPKSLIYAASSLQSGVPSKFSGSGSGTDFTLTISSLQPEDFATYYCLHYLTYPLTFGGGTKVEIK
11 | no binding | binds |  | 197G3 (antibody, V domains shown, Tested as hybridoma supernatant at normalized concentration) VH: QVQLVESGGGVVQPGRSLRLSCVASGFTFSSHGMHWVRQAPGKGLEWVAVIWYDGSNKNYADSVKGRFTISRDNSKNTLYLQMNSLRAEDTAVYYCARDPSVGYDGMDVWGQGTTVTVSS VL: DIQMTQSPSSLSASVGDRVTITCRASQGIGNHLAWFQQKPGKAPKSLIYAASSLQSGVPSKFSGSRSGTDFSLTISSLQPEDFATYYCQQYSNYPVTFGPGTKVDIK
12 | no binding | binds |  | 191G10 (antibody, V domains shown, Tested as hybridoma supernatant at normalized concentration) VH: QVQLVESGGGVVQPGRSLRLSCAASGFTFSSYGMHWVRQAPGKGLEWVAVIWYDGSNKNYADSVKGRFTISRDNSKNTLYLQMNSLRAEDTAVYYCARDQGVGYDGLDVWGQGTTVTVSS VL: DIQMTQSPSSLSASVGDRVTITCRTSQGIGKYLAWFQQKPGKAPKSLLYKVSSLQSGVPSKFSGSGSGTDFTLTISSLQPEDFATYYCQQYMTYPLTFGGGTKVEIK
13 | no binding | binds |  | 198G3 (antibody, V domains shown, Tested as hybridoma supernatant at normalized concentration) VH: QVQLVESGGGVVQPGRSLKLSCAASGFTFSTYGMHWVRQAPGKGLEWVAVIWYDGTNKNYADSVKGRFTISRDNSKNTLCLQMNSLRAEDTAVYYCARDQGVGYDGLDVWGQGTTVTVSS VL: DIQMAQSPSSLSASVGDRVTITCRTSQGIGKYLAWFQQKPGKAPKSLLYKASSLQGGVPSKFSGSGSGTDFTLTISSLQPEDFATYYCQQYMTYPLTFGGGTKVEIK
14 | no binding | binds |  | 191G1 (antibody, V domains shown, Tested as hybridoma supernatant at normalized concentration) VH: QVQLVESGGGVVQPGRSLRLSCAASGFTFSSYGMHWVRQAPGKGLEWVAVIWYDGSNEHYADSVKGRFTISRDNSKNTLYLQMNSLRAEDTAVYYCARDRGVGYYGLDVWGQGTTVTVSS VL: DIQMTQSPSSLSASVGDRVTITCRASQGISNYLAWFQQKPGKAPKSLIYAASSLQSGVPSKFSGSGSGTDFTLTISSLQPEDFATYYCQHYLTYPLTFGGGTKVEIK
15 | no binding |  |  | 7G4 (antibody, V domains shown, Tested as hybridoma supernatant at normalized concentration) VH: QVQLVESGGGVVQPGRSLRLSCAASGFTFNNYVMHWVRQAPGKGLEWVAVIWYDGSNKYYADSVKGRFTISRDNSKNTLYLQMTSLRAEDTAVYYCAREKYSSNWYDYGMDVWGQGTTVTVSS VL: DIQMTQSPSSLSASVGDRVTITCRASQGIRNDLGWYQQRPGKAPKRLIYAASSLQSGVPSRFSGSGSGTEFTLTISSLQPEDSATYYCLHQYSYPRTFGQGTKVEIK
16 | no binding | binds |  | 194C10 (antibody, V domains shown, Tested as hybridoma supernatant at normalized concentration) VH: QVQLQQWGAGLLKPSETLSLTCAVSGGSFRYYYWSWIRQPPGKGLEWFGEINHSGSTNYNPSLKSRVTISIDTSKNQFSLKLRSVTAADTAVYYCARDYGAFDIWGQGTMVTVSS VL: EIVLTQSPGTLSLSPGERATLSCRASPSVNSGYLAWYQQKPGQTPRLLIFGASSRATGIPDRFSASGSGADFTLTISRLEPEDFAVYFCQQYESSPWTFGQGTKVEIK
17 | no binding | binds |  | 218G4 (antibody, V domains shown, Tested as hybridoma supernatant at normalized concentration) VH: QVQLVESGGGVVQPGRSLRLSCAASGFTFSSYGLHWVRQAPGKGLEWVAVIWYDGSNKYYADSVKGRFTISRDNSKNTLYLQMNSLRVEDTAVYYCANWYYYYYGMDVWGQGTTVTVSS VL: QSVLTQPPSVSAAPGQKVTISCSGSSSNIGNNYVSWYQQLPGTAPKLLLYDSNKRPSGIPARFSGSKSGTSATLGITGLQTGDEADYYCGTWDSSLNTVVFGGGTKLTVL
18 | no binding |  |  | 48B12 (antibody, V domains shown, Tested as hybridoma supernatant at normalized concentration) VH: EVQLLESGGGLVQPGGSLRLSCAASGFTFSSYAMNWVRQAPGKGLEWVSAISGRGGNTFYADSVKGRFTISRDNSKNTLYLQMNSLRAEDTAVYYCAKRETYNWNYEGFDYWGQGTLVTVSS VL: SYELTQPPSVSVSPGQTARITCSGDALPKKYAYWYQQKSGQAPVLVIYEDSKRPSGIPERFSGSSSGTMATLTISGAQVEDEADYYCNSTDSSGNHVVFGGGTKLTVL
